Patent publication US7799901B2, “Modulators of the function of FAS receptors and other proteins” (Yeda Research and Development Co. Ltd., priority 1995, dated 2010)

Tests used:
Lamin = experiment: Two-hybrid β-galactosidase expression filter assay in SFY526 yeast, DNA-binding domain hybrid Lamin; conditions: specificity test
Source text: To isolate proteins interacting with the intracellular domain of the FAS-R, the yeast two-hybrid system was used (Fields and Song, 1989). […] In this system, the genes for the candidate interacting proteins are cloned into separate expression vectors. In one expression vector, the sequence of the one candidate protein is cloned in phase with the sequence of the GAL4 DNA-binding domain to generate a hybrid protein with the GAL4 DNA-binding-domain, and in the other vector, the sequence of the second candidate protein is cloned in phase with the sequence of the GAL4 activation domain to generate a hybrid protein with the GAL4-activation domain. The two hybrid vectors are then co-transformed into a yeast host strain having a lacZ or HIS3 reporter gene under the control of upstream GAL4 binding sites. […]
The yeast two-hybrid test was further applied to evaluate the specificity of binding of MACH to MORT-1, in particular, to define the region in MORT-1 to which MACH binds, as well as to determine which of the MACH ORFs interacts with MORT-1, the procedures being as set forth herein above in Examples 1 and 2. Briefly, various MORT-1 and MACH constructs were prepared for testing the interaction of the proteins encoded by the Gal4 DNA-binding domain and activation domain constructs within transfected SFY526 yeast cells as assessed by the β-galactosidase expression filter assay. […]

[1] = tested on: Fas/APO1 cytotoxicity (p55-Fas chimera) in 293-EBNA cells; format: cell-based, human; conditions: co-transfection
Protocol: In brief, 293-EBNA cells, MCF7 human breast carcinoma cells and HeLa HtTA-1 cells were grown in Dulbecco's modified Eagle's minimal essential medium supplemented with 10% fetal calf serum, nonessential amino acids, 100 U/ml penicillin and 100 μg/ml streptomycin. Cell tissue culture dishes (5×10^5 293-EBNA cells, 3×10^5 s MCF7 cells or 3×10^5 HeLa cells in 6-cm dishes) were transiently transfected, using the calcium phosphate precipitation method, with the cDNAs of the indicated proteins together with the β-galactosidase expression vector. In the experiments presented in FIGS. 14A-D and 15, each dish was transfected with 3.5 μg of the indicated MACH construct and 1.5 μg of pSV-β-gal. In the experiments presented in FIGS. 16A-D and 17-19, each dish was transfected with 2.5 μg of the indicated MACH or MORT1 construct (or, as control, empty vector) and 1.5 μg of pSV-β-gal. The cells were rinsed 6 to 10 h after transfection. The 293-EBNA and MCF7 cells were incubated for a further 18 h without additional treatment. […] The extent of cell death at the end of the incubation periods was assessed by determination of β-galactosidase expression, as described by Kumar et al, 1994. […]
In particular, FIGS. 16A-D show morphology of 293-EBNA cells in which cell death was induced by transient expression of a chimera comprised of the extracellular domain of the p55-R (amino acids 1-168) fused to the transmembrane and intracellular domains of Fas/APO1 (amino acids 153-319) (p55-Fas chimera) (FIGS. 16A and 16B), or by expression of the p55-R (FIGS. 16C and 16D), and of cells that were protected from these cytotoxic effects by their simultaneous transfection with MACHα1 (C360S) (FIGS. 16B and 16D). […] FIG. 17 illustrates the quantification of death induced in 293-EBNA cells by their transfection with p55-Fas chimera or with p55-R, together with an empty vector, a MORT1 deletion mutant lacking the MACH-binding region (MORT1 (92-208)), or MACHα molecules containing a nonfunctional CED3/ICE region. […] Data are from at least two independent experiments and are expressed as in FIGS. 14A-F and 15.

B1: MACHβ1: MACH isoform, cDNA SEQ ID NO: 4, amino acid SEQ ID NO: 5; lacks the CED3/ICE homology region (protein)
chain: MDFSRNLYDIGEQLDSEDLASLKFLSLDYIPQRKQEPIKDALMLFQRLQEKRMLEESNLSFLKELLFRINRLDLLITYLNTRKEEMERELQTPGRAQISAYRVMLYQISEEVSRSELRSFKFLLQEEISKCKLDDDMNLLDIFIEMEKRVILGEGKLDILKRVCAQINKSLLKIINDYEEFSKERSSSLEGSPDEFSNDFGQSLPNEKQTSGILSDHQQSQFCKSTGESAQTSQH
development of color (interaction with DNA-binding domain hybrid) (Lamin): −−− (“−−−” indicates the lack of development of color within 24 hrs. of the assay)

B2: MACHα1 (C360S): MACHα1 mutant in which the catalytic cysteine Cys360 is replaced by Ser (protein)
chain: MDFSRNLYDIGEQLDSEDLASLKFLSLDYIPQRKQEPIKDALMLFQRLQEKRMLEESNLSFLKELLFRINRLDLLITYLNTRKEEMERELQTPGRAQISAYRVMLYQISEEVSRSELRSFKFLLQEEISKCKLDDDMNLLDIFIEMEKRVILGEGKLDILKRVCAQINKSLLKIINDYEEFSKERSSSLEGSPDEFSNGEELCGVMTISDSPREQDSESQTLDKVYQMKSKPRGYCLIINNHNFAKAREKVPKLHSIRDRNGTHLDAGALTTTFEELHFEIKPHDDCTVEQIYEILKIYQLMDHSNMDCFICCILSHGDKGIIYGTDGQEAPIYELTSQFTGLKCPSLAGKPKVFFIQASQGDNYQKGIPVETDSEEQPYLEMDLSSPQTRYIPDEADFLLGMATVNNCVSYRNPAEGTWYIQSLCQSLRERCPRGDDILTILTEVNYEVSNKDDKKNMGKQMPQPTFTLRKKLVFPSD
protection against Fas/APO1 cytotoxicity (p55-Fas chimera) [1]: protected
